The source of these data is patent US20030049259A1.

This experiment has as its target E-cadherin (human) (UniProt P12830). Kind of experiment: cell-based or functional assay.
Sequence of UniProt P12830 (P12830 155-882): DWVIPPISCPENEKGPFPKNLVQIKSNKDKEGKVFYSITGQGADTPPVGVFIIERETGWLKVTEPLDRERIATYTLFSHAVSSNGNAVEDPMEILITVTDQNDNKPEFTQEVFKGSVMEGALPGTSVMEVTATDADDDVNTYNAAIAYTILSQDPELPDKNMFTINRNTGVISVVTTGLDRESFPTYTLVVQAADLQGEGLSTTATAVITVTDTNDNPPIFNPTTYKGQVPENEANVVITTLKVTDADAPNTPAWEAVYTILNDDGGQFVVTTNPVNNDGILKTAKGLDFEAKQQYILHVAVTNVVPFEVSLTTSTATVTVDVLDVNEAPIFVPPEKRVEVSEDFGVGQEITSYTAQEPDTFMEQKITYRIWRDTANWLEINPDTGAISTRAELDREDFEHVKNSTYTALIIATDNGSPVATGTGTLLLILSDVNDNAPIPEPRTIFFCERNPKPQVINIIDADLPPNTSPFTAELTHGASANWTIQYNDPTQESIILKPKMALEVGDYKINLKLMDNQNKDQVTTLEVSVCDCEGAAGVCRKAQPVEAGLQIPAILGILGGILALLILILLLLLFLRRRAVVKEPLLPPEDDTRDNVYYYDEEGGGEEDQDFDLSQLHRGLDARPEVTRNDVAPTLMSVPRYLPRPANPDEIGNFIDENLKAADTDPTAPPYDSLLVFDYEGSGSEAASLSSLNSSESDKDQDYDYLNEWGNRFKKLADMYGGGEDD

In turn, “E4.6 (mouse anti-human E-cadherin, IgG1) (antibody)” displayed a blocking of ilEL binding to 16E6.A5 monolayers in 1 mM Ca2+, Mg2+ and Mn2+ (FIG. 3A) of 55%; a blocking of ilEL binding to 16E6.A5 monolayers in the absence of Ca2+ and Mn2+ (FIG. 3B) of 0%.
